We go through 6 sequences from the supplement of paper PMC5998384.

Data set [1] concerns HeLa Kyoto. The data set can be described thus: solubility in G1/S (NP-40 vs SDS abundance) (log2 ratio); higher = more soluble. To be noted: cell cycle stage: G1/S.
In data set [2] the test system is HeLa Kyoto. Description: thermal stability score vs G1/S (z-score of summed log2 fold changes over temperatures); higher = more thermally stable than in G1/S.
The subject of data set [3] is HeLa Kyoto. Description: solubility change mitosis vs G1/S (difference of NP-40 vs SDS log2 ratios) (log2 ratio difference); higher = more soluble in mitosis.
For data set [4], the system named is HeLa Kyoto. Description: melting temperature (median over replicates), in situ; higher = more thermally stable.
Setting [5] is: cell cycle stage: early G1 (4.5 h after nocodazole release).
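Throughout, for melting temperature (median over replicates), in situ: HeLa Kyoto cells synchronized by double thymidine or nocodazole block, proteins quantified by TMT10plex mass spectrometry, three independent biological replicates.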
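Throughout, for solubility change mitosis vs G1/S (difference of NP-40 vs SDS log2 ratios): synchronized HeLa Kyoto cells (double thymidine block for G1/S, nocodazole release for mitosis), protein amounts in NP-40 versus SDS lysates quantified by mass spectrometry, three biological replicates.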
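Throughout, for solubility in G1/S (NP-40 vs SDS abundance): HeLa Kyoto cells arrested at G1/S by double thymidine block, proteins quantified by TMT10plex mass spectrometry in mild NP-40 versus SDS extracts, three biological replicates.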
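Throughout, for thermal stability score vs G1/S (z-score of summed log2 fold changes over temperatures): synchronized HeLa Kyoto cells, proteins quantified by TMT10plex mass spectrometry, three biological replicates, mitosis taken 0.5 h after nocodazole release, G1/S directly after double thymidine block.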

As to “MAVLLETTLGDVVIDLYTEERPRACLNFLKLCKIKYYNYCLIHNVQRDFIIQTGDPTGTGRGGESIFGQLYGDQASFFEAEKVPRIKHKKKGTVSMVNNGSDQHGSQFLITTGENLDYLDGVHTVFGEVTEGMDIIKKINETFVDKDFVPYQDIRINHTVILDDPFDDPPDLLIPDRSPEPTREQLDSGRIGADEEIDDFKGRSAEEVEEIKAEKEAKTQAILLEMVGDLPDADIKPPENVLFVCKLNPVTTDEDLEIIFSRFGPIRSCEVIRDWKTGESLCYAFIEFEKEEDCEKAFFKMDNVLIDDRRIHVDFSQSVAKVKWKGKGGKYTKSDFKEYEKEQDKPPNLVLKDKVKPKQDTKYDLILDEQAEDSKSSHSHTSKKHKKKTHHCSEEKEDEDYMPIKNTNQDIYREMGFGHYEEEESCWEKQKSEKRDRTQNRSRSRSRERDGHYSNSHKSKYQTDLYERERSKKRDRSRSPKKSKDKEKSKYR [PPIL4]”, in data set [1], the “solubility in G1/S (log2)” value was -0.23. Besides, the figures for the thermal stability score in data set [2] (setting [5]) and in data set [2] (cell cycle stage: mitosis) were 1.3 and 1.99, respectively. Further, in data set [3], the “solubility change mitosis (log2)” value was determined as 0.0472. The melting temperature in data set [4] (cell cycle stage: G1/S) worked out at 49.2 °C; in data set [4] (cell cycle stage: mitosis), 50.3 °C.

Take “MAVPAAAMGPSALGQSGPGSMAPWCSVSSGPSRYVLGMQELFRGHSKTREFLAHSAKVHSVAWSCDGRRLASGSFDKTASVFLLEKDRLVKENNYRGHGDSVDQLCWHPSNPDLFVTASGDKTIRIWDVRTTKCIATVNTKGENINICWSPDGQTIAVGNKDDVVTFIDAKTHRSKAEEQFKFEVNEISWNNDNNMFFLTNGNGCINILSYPELKPVQSINAHPSNCICIKFDPMGKYFATGSADALVSLWDVDELVCVRCFSRLDWPVRTLSFSHDGKMLASASEDHFIDIAEVETGDKLWEVQCESPTFTVAWHPKRPLLAFACDDKDGKYDSSREAGTVKLFGLPNDS [THOC3]”: the “solubility in G1/S (log2)” value in data set [1] was -0.421. Also, the thermal stability score in data set [2] (setting [5]) is -1.08; in data set [2] (cell cycle stage: mitosis), 1.13. In data set [3], the “solubility change mitosis (log2)” value is 0.047. Further, the melting temperature is 50.6 °C in data set [4] (cell cycle stage: G1/S) and 51.9 °C in data set [4] (cell cycle stage: mitosis).

For the sequence “MAVPFVEDWDLVQTLGEGAYGEVQLAVNRVTEEAVAVKIVDMKRAVDCPENIKKEICINKMLNHENVVKFYGHRREGNIQYLFLEYCSGGELFDRIEPDIGMPEPDAQRFFHQLMAGVVYLHGIGITHRDIKPENLLLDERDNLKISDFGLATVFRYNNRERLLNKMCGTLPYVAPELLKRREFHAEPVDVWSCGIVLTAMLAGELPWDQPSDSCQEYSDWKEKKTYLNPWKKIDSAPLALLHKILVENPSARITIPDIKKDRWYNKPLKKGAKRPRVTSGGVSESPSGFSKHIQSNLDFSPVNSASSEENVKYSSSQPEPRTGLSLWDTSPSYIDKLVQGISFSQPTCPDHMLLNSQLLGTPGSSQNPWQRLVKRMTRFFTKLDADKSYQCLKETCEKLGYQWKKSCMNQVTISTTDRRNNKLIFKVNLLEMDDKILVDFRLSKGDGLEFKRHFLKIKGKLIDIVSSQKIWLPAT [CHEK1]”, in data set [1], the “solubility in G1/S (log2)” value is 0.104. The thermal stability score in data set [2] (setting [5]) turned out to be 1.82; in data set [2] (cell cycle stage: mitosis), 1.62. Also, the “solubility change mitosis (log2)” value in data set [3] is -0.07. The melting temperature in data set [4] (cell cycle stage: G1/S) amounted to 51.7 °C; in data set [4] (cell cycle stage: mitosis) it was 51.9 °C.

As for “MAVPGVGLLTRLNLCARRRTRVQRPIVRLLSCPGTVAKDLRRDEQPSGSVETGFEDKIPKRRFSEMQNERREQAQRTVLIHCPEKISENKFLKYLSQFGPINNHFFYESFGLYAVVEFCQKESIGSLQNGTHTPSTAMETAIPFRSRFFNLKLKNQTSERSRVRSSNQLPRSNKQLFELLCYAESIDDQLNTLLKEFQLTEENTKLRYLTCSLIEDMAAAYFPDCIVRPFGSSVNTFGKLGCDLDMFLDLDETRNLSAHKISGNFLMEFQVKNVPSERIATQKILSVLGECLDHFGPGCVGVQKILNARCPLVRFSHQASGFQCDLTTNNRIALTSSELLYIYGALDSRVRALVFSVRCWARAHSLTSSIPGAWITNFSLTMMVIFFLQRRSPPILPTLDSLKTLADAEDKCVIEGNNCTFVRDLSRIKPSQNTETLELLLKEFFEYFGNFAFDKNSINIRQGREQNKPDSSPLYIQNPFETSLNISKNVSQSQLQKFVDLARESAWILQQEDTDRPSISSNRPWGLVSLLLPSAPNRKSFTKKKSNKFAIETVKNLLESLKGNRTENFTKTSGKRTISTQT [MTPAP]”, the “solubility in G1/S (log2)” value in data set [1] was -0.331. Moreover, the thermal stability score in data set [2] (setting [5]) was 0.65; in data set [2] (cell cycle stage: mitosis), 1.8. Further, the “solubility change mitosis (log2)” value in data set [3] stood at 0.114. In addition, the melting temperature in data set [4] (cell cycle stage: G1/S) amounted to 51 °C; in data set [4] (cell cycle stage: mitosis), 49.8 °C.

Turning to “MAVQESAAQLSMTLKVQEYPTLKVPYETLNKRFRAAQKNIDRETSHVTMVVAELEKTLSGCPAVDSVVSLLDGVVEKLSVLKRKAVESIQAEDESAKLCKRRIEHLKEHSSDQPAAASVWKRKRMDRMMVEHLLRCGYYNTAVKLARQSGIEDLVNIEMFLTAKEVEESLERRETATCLAWCHDNKSRLRKMKSCLEFSLRIQEFIELIRQNKRLDAVRHARKHFSQAEGSQLDEVRQAMGMLAFPPDTHISPYKDLLDPARWRMLIQQFRYDNYRLHQLGNNSVFTLTLQAGLSAIKTPQCYKEDGSSKSPDCPVCSRSLNKLAQPLPMAHCANSRLVCKISGDVMNENNPPMMLPNGYVYGYNSLLSIRQDDKVVCPRTKEVFHFSQAEKVYIM [MAEA]”, the “solubility in G1/S (log2)” value in data set [1] was -0.0777. Moreover, the thermal stability score is -0.838 in data set [2] (setting [5]) and -0.615 in data set [2] (cell cycle stage: mitosis). Moreover, in data set [3], the “solubility change mitosis (log2)” value was -0.0756. Moreover, the figures for the melting temperature in data set [4] (cell cycle stage: G1/S) and in data set [4] (cell cycle stage: mitosis) were 50.2 °C and 49.3 °C, respectively.

For “MAVRALKLLTTLLAVVAAASQAEVESEAGWGMVTPDLLFAEGTAAYARGDWPGVVLSMERALRSRAALRALRLRCRTQCAADFPWELDPDWSPSPAQASGAAALRDLSFFGGLLRRAACLRRCLGPPAAHSLSEEMELEFRKRSPYNYLQVAYFKINKLEKAVAAAHTFFVGNPEHMEMQQNLDYYQTMSGVKEADFKDLETQPHMQEFRLGVRLYSEEQPQEAVPHLEAALQEYFVAYEECRALCEGPYDYDGYNYLEYNADLFQAITDHYIQVLNCKQNCVTELASHPSREKPFEDFLPSHYNYLQFAYYNIGNYTQAVECAKTYLLFFPNDEVMNQNLAYYAAMLGEEHTRSIGPRESAKEYRQRSLLEKELLFFAYDVFGIPFVDPDSWTPEEVIPKRLQEKQKSERETAVRISQEIGNLMKEIETLVEEKTKESLDVSRLTREGGPLLYEGISLTMNSKLLNGSQRVVMDGVISDHECQELQRLTNVAATSGDGYRGQTSPHTPNEKFYGVTVFKALKLGQEGKVPLQSAHLYYNVTEKVRRIMESYFRLDTPLYFSYSHLVCRTAIEEVQAERKDDSHPVHVDNCILNAETLVCVKEPPAYTFRDYSAILYLNGDFDGGNFYFTELDAKTVTAEVQPQCGRAVGFSSGTENPHGVKAVTRGQRCAIALWFTLDPRHSERDRVQADDLVKMLFSPEEMDLSQEQPLDAQQGPPEPAQESLSGSESKPKDEL [P3H1]”, the “solubility in G1/S (log2)” value in data set [1] was -0.0649. Moreover, the thermal stability score worked out at 1.77 in data set [2] (setting [5]) and 3.07 in data set [2] (cell cycle stage: mitosis). Moreover, the “solubility change mitosis (log2)” value in data set [3] is -0.0228. The values for the melting temperature in data set [4] (cell cycle stage: G1/S) and in data set [4] (cell cycle stage: mitosis) were 53.2 °C and 54.3 °C, respectively.
